Laboratory results taken from article PMC8352653 (Cell Reports, 2021).
Numbering of substitutions follows the chain as printed.

Tests used:
[1] = molecular target: full-length SARS-CoV-2 S protein expressed in HEK293T cells (SARS-CoV-2, Wuhan-Hu-1, UniProt P0DTC2); test: flow cytometry on cells
[2] = molecular target: variant of S6P_(ecto) protein containing a C-terminal Twin-Strep-tag (SARS-CoV-2, Wuhan-Hu-1 (assumed), UniProt P0DTC2, stabilised); test: negative stain electron microscopy

B1: COV2-2002 (antibody, V domains shown)
VH: EVQLVESGGGLVQPGGSLRLSCAASGFTFSFYWMSWVRQAPGKGLEWVANIKQDGSEKYYVDSVKGRSTISRDNAKNSLYLQMNSLRAEDTAVYYCARVGSSSWYFDYWGQGTLVTVSS
VL: not shown
[1]
  binding result: binds

B2: COV2-2333 (antibody, V domains shown)
VH: B1 VH with F31I, E46Q, G55A, S68F, V99L, S101G, Y105H
VL: SYELTQPPSVSVSPGQTASITCSGDKLGDKYSSWYQQKPGQSPVLVIYEDTKRPSGIPERFSGSNSGNTATLTISGTQAMDEADYYCQAWSSSTAVFGGGTKLTVL
[1]
  binding result: binds

B3: COV2-2531 (antibody, V domains shown)
VH: QVQLQESGPGLVKPSETLSLTCSVSGGSIRSYFWNWVRQPPGKGLEWIGYIYYSGSTNYKPSFKSRVTISLDTSKNQISLKLSSVTAADTAVYYCARATWLRDAFGIWGQGTMVTVSS
VL: NFMLTQPHSVSESPGKTVTISCTGNSGSIASNYVQWYQQRPGSAPTTVIYEDSQRPSGVPDRFSGSIDSSSNSASLTISGLKTEDEADYYCQSFDSGNVVFGGGTKLTVL
[1]
  binding result: binds

B4: C126 (antibody, V domains shown)
VH: QVQLQESGPGLVKPSETLSLSCAVSGGSIGSYFWSWIRQPPGKGLEWIGYLHYSGSTNYNPSLKSRVTISVDTSKNQFSLKLSSVTAADTAVYYCARLQWLRGAFDIWGQGTMVTVSS
VL: B3 VL with N25S, Y50N, S53N, F94Y, G97S, V99L
[1]
  binding result: binds

B5: C126 Fab (Fab, V domains shown)
VH: B4 VH
VL: B3 VL with N25S, Y50N, S53N, F94Y, G97S, V99L
[2]
  binding result: binds

B6: COV2-2531 Fab (Fab, V domains shown)
VH: B3 VH
VL: B3 VL
[2]
  binding result: binds

B7: CnC2t1p1_B10 (antibody, V domains shown)
VH: QVQLVQSGAEVKKPGSSVKVSCKASGGTFSSYAISWVRQAPGQGLEWMGGIIPIFGTANYAQKFQGRVTITADKSTSTAYMELSSLRSEDTAVYYCARVSGYDSSGYWGDYWGQGTLVTVSS
VL: EIVLTQSPATLSLSPGERATLSCRASQSVSSYLAWYQQKPGQAPRLLIYDASNRATGIPARFSGSGSGTDFTLTISSLEPEDFAVYYCQQRSNWPPALTFGGGTKVEIK
[1]
  binding result: binds
